{
  "source": "patent EP0997151B1",
  "about": "“Method for administering insulinotropic peptides” (priority 1998, dated 2006)",
  "origin": "cited, not measured here",
  "conditions": "pulmonary delivery; calculated, background",
  "data": [
    {"substance": "parathyroid hormone (1-34)", "values": [
      {"measurement": "Absorption values for proteins delivered through the lungs", "value": "fifteen"}
    ]}
  ]
}
